Reference: patent CN114395044A (HEFEN TIANKPORT IMMUNOLOGICAL DRUG CO LTD, dated 2022)

Tests used:
[1] = target: T1, 人CD16a抗原 (ACRO biosystems, 货号CDA-H5220) (human, UniProt P08637 17-208); assay: ELISA, human CD16a coated at 2 μg/mL, HRP rabbit anti-human IgG, OD450
T1 construct: Bought protein coated on the ELISA plate at 2 μg/mL; also called 人CD16a蛋白; CD16抗原

[2] = target: T2, 人B7H6 (ACRO biosystems, 货号B76-H52H8) (human, UniProt Q68D85 25-262); assay: ELISA, human B7H6 coated at 2 μg/mL, HRP rabbit anti-human IgG, OD450
T2 construct: Bought protein coated on the ELISA plate at 2 μg/mL; also called 人B7H6蛋白; B7H6抗原
T2 sequence (looked up): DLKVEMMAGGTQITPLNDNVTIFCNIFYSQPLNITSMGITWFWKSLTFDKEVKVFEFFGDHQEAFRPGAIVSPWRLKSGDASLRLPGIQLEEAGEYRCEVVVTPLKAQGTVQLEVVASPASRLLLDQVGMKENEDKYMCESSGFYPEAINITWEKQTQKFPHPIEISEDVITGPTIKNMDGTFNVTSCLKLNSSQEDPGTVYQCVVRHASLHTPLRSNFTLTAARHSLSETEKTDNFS

T1 sequence (P08637 17-208 limits assumed): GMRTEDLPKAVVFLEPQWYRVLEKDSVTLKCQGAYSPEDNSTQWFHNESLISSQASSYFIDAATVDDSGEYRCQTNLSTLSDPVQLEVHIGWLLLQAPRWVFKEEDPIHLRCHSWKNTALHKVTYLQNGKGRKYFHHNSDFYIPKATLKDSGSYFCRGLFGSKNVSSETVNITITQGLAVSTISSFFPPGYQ

binding result [1]: binds
binding result [2]: binds
B1: CD16×B7H6重组双特异性抗体 (bispecific antibody, human IgG1, L234A L235A)
chain 1: not shown
chain 2: DIVLTQTPLSLSVTPGQPASISCKASQSVDYDGDSYMNWYLQKPGQPPQLLIYAASTLHSGIPDRFSGSGSGTDFTLKISRVEAEDVGVYYCQQSKEDPRTFGQGTKLEIKGGGGSGGGGSGGGGSEVQLVQSGAEVKKPGASVKVSCKASGYTFTDYNMDWVRQAPGQGLEWIGDINPNNGGTLYNQKFRGRVTLTVDTSISTAYMELSRLRSDDTAVYYCARSEVFYGNYADYWGQGTTVTVSSEPKSCDKTHTCPPCPAPEAAGGPSVFLFPPKPKDTLMISRTPEVTCVVVDVSHEDPEVKFNWYVDGVEVHNAKTKPREEQYNSTYRVVSVLTVLHQDWLNGKEYKCKVSNKALPAPIEKTISKAKGQPREPQVCTLPPSRDELTKNQVSLSCAVKGFYPSDIAVEWESNGQPENNYKTTPPVLDSDGSFFLVSKLTVDKSRWQQGNVFSCSVMHEALHNHYTQKSLSLSPGK
notes: Heterodimer of two scFv-Fc chains (knob-into-hole); Expressed in ExpiCHO-S, purified on protein A; also called NKmab; CD16×B7H6双特异性抗体
